Laboratory results: the supplement of paper PMC10724198
± gives the standard deviation of the averaged measurements.

Experiments:
[1] = system: Saccharomyces cerevisiae; assay: protein stability index of tFT-peptide fusion (C-terminal peptide) (PSI (0-1 scale)); higher = more stable (slower turnover); details: genetic background: wild type; temperature: 30 C
[2] = system: Saccharomyces cerevisiae; assay: as above
Procedure: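 MPS profiling in S. cerevisiae of the tFT-X12 degron library: putative degron peptides plus stable controls, 12 aa, fused to the C-terminus of a sfGFP-mCherry timer. Cells are FACS-sorted into 8 mCherry/sfGFP bins and deep-sequenced. PSI runs from 0 (unstable) to 1 (stable). Backgrounds are wild type, das1Δ and doa10Δ at 30 °C, and wild type, das1Δ, cdc34-1 and cdc53-1 at 37 °C; 2-3 technical replicates each.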

[3] = genetic background: cdc34-1, temperature: 37 C
[4] = genetic background: cdc53-1, temperature: 37 C
[5] = genetic background: das1 deletion, temperature: 30 C
[6] = genetic background: das1 deletion, temperature: 37 C
[7] = genetic background: doa10 deletion, temperature: 30 C
[8] = genetic background: wild type, temperature: 30 C
[9] = genetic background: wild type, temperature: 37 C
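Further: PSI is a weighted mean of sequencing reads over stability bins, variants kept only with over 10 reads, mCherry proximal and sfGFP distal, peptide attached via GGGS linker.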

## ACLVAVWRWVFV
[1]
  protein stability index: 0.126 ± 0.024
[2]; [3]
  protein stability index: 0.276 ± 0.017
[2]; [4]
  protein stability index: 0.44 ± 0.037
[2]; [5]
  protein stability index: 0.309 ± 0.024
[2]; [6]
  protein stability index: 0.475 ± 0.0051
[2]; [7]
  protein stability index: 0.0646 ± 0.012
[2]; [8]
  protein stability index: 0.0758 ± 0.0066
[2]; [9]
  protein stability index: 0.0704 ± 0.0067

## KLRELQVRQQLS
[1]
  protein stability index: 0.382 ± 0.02
[2]; [3]
  protein stability index: 0.648 ± 0.1
[2]; [4]
  protein stability index: 0.677 ± 0.015
[2]; [5]
  protein stability index: 0.635 ± 0.03
[2]; [6]
  protein stability index: 0.7272 ± 0.0049
[2]; [7]
  protein stability index: 0.189 ± 0.021
[2]; [8]
  protein stability index: 0.199 ± 0.025
[2]; [9]
  protein stability index: 0.413 ± 0.017

## AFRRFLLYCRFI
[1]
  protein stability index: 0.198 ± 0.012
[2]; [3]
  protein stability index: 0.395 ± 0.013
[2]; [4]
  protein stability index: 0.378 ± 0.0056
[2]; [5]
  protein stability index: 0.503 ± 0.035
[2]; [6]
  protein stability index: 0.607 ± 0.015
[2]; [7]
  protein stability index: 0.199 ± 0.019
[2]; [8]
  protein stability index: 0.148 ± 0.025
[2]; [9]
  protein stability index: 0.201 ± 0.029

## VFCMVLPFVLLT
[1]
  protein stability index: 0.214 ± 0.035
[2]; [3]
  protein stability index: 0.126 ± 0.018
[2]; [4]
  protein stability index: 0.0906 ± 0.016
[2]; [5]
  protein stability index: 0.194 ± 0.024
[2]; [6]
  protein stability index: 0.2715 ± 0.0011
[2]; [7]
  protein stability index: 0.1776 ± 0.0015
[2]; [8]
  protein stability index: 0.136 ± 0.02
[2]; [9]
  protein stability index: 0.157 ± 0.016

## FAKRVARVAREH
[1]
  protein stability index: 0.33 ± 0.021
[2]; [3]
  protein stability index: 0.677 ± 0.052
[2]; [4]
  protein stability index: 0.725 ± 0.018
[2]; [5]
  protein stability index: 0.6452 ± 0.0051
[2]; [6]
  protein stability index: 0.726 ± 0.012
[2]; [7]
  protein stability index: 0.17 ± 0.024
[2]; [8]
  protein stability index: 0.219 ± 0.0058
[2]; [9]
  protein stability index: 0.383 ± 0.014

## LLVLPFFSLSRF
[1]
  protein stability index: 0.816 ± 0.01
[2]; [3]
  protein stability index: 0.896 ± 0.028
[2]; [4]
  protein stability index: 0.90351 ± 0.00018
[2]; [5]
  protein stability index: 0.774 ± 0.0081
[2]; [6]
  protein stability index: 0.8734 ± 0.0026
[2]; [7]
  protein stability index: 0.748 ± 0.024
[2]; [8]
  protein stability index: 0.763 ± 0.017
[2]; [9]
  protein stability index: 0.852 ± 0.019

## YVWPKRRGLRVA
[1]
  protein stability index: 0.433 ± 0.013
[2]; [3]
  protein stability index: 0.611 ± 0.036
[2]; [4]
  protein stability index: 0.674 ± 0.023
[2]; [5]
  protein stability index: 0.467 ± 0.03
[2]; [6]
  protein stability index: 0.679 ± 0.009
[2]; [7]
  protein stability index: 0.197 ± 0.019
[2]; [8]
  protein stability index: 0.261 ± 0.038
[2]; [9]
  protein stability index: 0.49 ± 0.025

## VFVRDFLVSIVV
[1]
  protein stability index: 0.257 ± 0.014
[2]; [3]
  protein stability index: 0.0474 ± 0.014
[2]; [4]
  protein stability index: 0.0563 ± 0.0023
[2]; [5]
  protein stability index: 0.174 ± 0.025
[2]; [6]
  protein stability index: 0.196 ± 0.0061
[2]; [7]
  protein stability index: 0.139 ± 0.0096
[2]; [8]
  protein stability index: 0.164 ± 0.022
[2]; [9]
  protein stability index: 0.166 ± 0.011

## VFFMFVFFPFPG
[1]
  protein stability index: 0.471 ± 0.026
[2]; [3]
  protein stability index: 0.523 ± 0.084
[2]; [4]
  protein stability index: 0.584 ± 0.035
[2]; [5]
  protein stability index: 0.404 ± 0.029
[2]; [6]
  protein stability index: 0.592 ± 0.03
[2]; [7]
  protein stability index: 0.368 ± 0.014
[2]; [8]
  protein stability index: 0.413 ± 0.028
[2]; [9]
  protein stability index: 0.538 ± 0.0059

## WGVVMVCVVFGL
[1]
  protein stability index: 0.3249 ± 0.0027
[2]; [3]
  protein stability index: 0.116 ± 0.019
[2]; [4]
  protein stability index: 0.247 ± 0.016
[2]; [5]
  protein stability index: 0.186 ± 0.028
[2]; [6]
  protein stability index: 0.312 ± 0.0044
[2]; [7]
  protein stability index: 0.159 ± 0.011
[2]; [8]
  protein stability index: 0.183 ± 0.019
[2]; [9]
  protein stability index: 0.252 ± 0.027

## RWRLWVGWGVVG
[2]; [3]
  protein stability index: 0.621 ± 0.034
[2]; [4]
  protein stability index: 0.688 ± 0.022
[2]; [5]
  protein stability index: 0.521 ± 0.0056
[2]; [6]
  protein stability index: 0.691 ± 0.039
[2]; [7]
  protein stability index: 0.425 ± 0.029
[2]; [8]
  protein stability index: 0.368 ± 0.078
[2]; [9]
  protein stability index: 0.533 ± 0.059

## APPFPPPPARSL
[2]; [3]
  protein stability index: 0.644 ± 0.034
[2]; [4]
  protein stability index: 0.713 ± 0.0095
[2]; [5]
  protein stability index: 0.675 ± 0.019
[2]; [6]
  protein stability index: 0.718 ± 0.033
[2]; [7]
  protein stability index: 0.694 ± 0.022
[2]; [8]
  protein stability index: 0.68 ± 0.017
[2]; [9]
  protein stability index: 0.677 ± 0.015

## PACPPLPPRSPS
[2]; [3]
  protein stability index: 0.634 ± 0.0068
[2]; [4]
  protein stability index: 0.7142 ± 0.0047
[2]; [5]
  protein stability index: 0.693 ± 0.028
[2]; [6]
  protein stability index: 0.737 ± 0.017
[2]; [7]
  protein stability index: 0.688 ± 0.069
[2]; [8]
  protein stability index: 0.7 ± 0.015
[2]; [9]
  protein stability index: 0.7 ± 0.024

## LLFFGFVGSCVF
[2]; [3]
  protein stability index: 0.6341 ± 0.0023
[2]; [4]
  protein stability index: 0.6187 ± 0.0052
[2]; [5]
  protein stability index: 0.468 ± 0.028
[2]; [6]
  protein stability index: 0.671 ± 0.041
[2]; [7]
  protein stability index: 0.471 ± 0.047
[2]; [8]
  protein stability index: 0.485 ± 0.036
[2]; [9]
  protein stability index: 0.57 ± 0.0036

## GGGGVFGVWVWM
[2]; [3]
  protein stability index: 0.533 ± 0.058
[2]; [4]
  protein stability index: 0.618 ± 0.018
[2]; [5]
  protein stability index: 0.511 ± 0.013
[2]; [6]
  protein stability index: 0.656 ± 0.0086
[2]; [7]
  protein stability index: 0.23 ± 0.017
[2]; [8]
  protein stability index: 0.272 ± 0.024
[2]; [9]
  protein stability index: 0.494 ± 0.014

## YIYIFLVWGWYC
[2]; [3]
  protein stability index: 0.193 ± 0.056
[2]; [4]
  protein stability index: 0.314 ± 0.016
[2]; [5]
  protein stability index: 0.214 ± 0.033
[2]; [6]
  protein stability index: 0.4232 ± 0.0041
[2]; [7]
  protein stability index: 0.103 ± 0.013
[2]; [8]
  protein stability index: 0.132 ± 0.0065
[2]; [9]
  protein stability index: 0.201 ± 0.018

## WPPPPPSLLLLC
[2]; [3]
  protein stability index: 0.4666 ± 0.0016
[2]; [4]
  protein stability index: 0.548 ± 0.022
[2]; [5]
  protein stability index: 0.473 ± 0.016
[2]; [6]
  protein stability index: 0.611 ± 0.017
[2]; [7]
  protein stability index: 0.127 ± 0.0019
[2]; [8]
  protein stability index: 0.149 ± 0.019
[2]; [9]
  protein stability index: 0.177 ± 0.024

## HSAIFLFFFFFG
[2]; [3]
  protein stability index: 0.283 ± 0.11
[2]; [4]
  protein stability index: 0.4553 ± 0.0042
[2]; [5]
  protein stability index: 0.314 ± 0.022
[2]; [6]
  protein stability index: 0.444 ± 0.03
[2]; [7]
  protein stability index: 0.331 ± 0.051
[2]; [8]
  protein stability index: 0.296 ± 0.024
[2]; [9]
  protein stability index: 0.401 ± 0.034

## FFFWLLCAGWLL
[2]; [3]
  protein stability index: 0.661 ± 0.01
[2]; [4]
  protein stability index: 0.622 ± 0.012
[2]; [5]
  protein stability index: 0.544 ± 0.044
[2]; [6]
  protein stability index: 0.656 ± 0.0071
[2]; [7]
  protein stability index: 0.551 ± 0.041
[2]; [8]
  protein stability index: 0.534 ± 0.0081
[2]; [9]
  protein stability index: 0.649 ± 0.0073

## NAAVQSGGRVAG
[2]; [3]
  protein stability index: 0.67 ± 0.043
[2]; [4]
  protein stability index: 0.722 ± 0.05
[2]; [5]
  protein stability index: 0.638 ± 0.01
[2]; [6]
  protein stability index: 0.733 ± 0.0013
[2]; [7]
  protein stability index: 0.645 ± 0.025
[2]; [8]
  protein stability index: 0.646 ± 0.0076
[2]; [9]
  protein stability index: 0.696 ± 0.016

## DNTYRIDIKNKQ
[2]; [3]
  protein stability index: 0.764 ± 0.093
[2]; [4]
  protein stability index: 0.771 ± 0.04
[2]; [5]
  protein stability index: 0.641 ± 0.019
[2]; [6]
  protein stability index: 0.689 ± 0.0069
[2]; [7]
  protein stability index: 0.4753 ± 0.0045
[2]; [8]
  protein stability index: 0.466 ± 0.013
[2]; [9]
  protein stability index: 0.6553 ± 0.00098

## RPPHPPPATFLS
[2]; [3]
  protein stability index: 0.617 ± 0.064
[2]; [4]
  protein stability index: 0.7 ± 0.0084
[2]; [5]
  protein stability index: 0.679 ± 0.018
[2]; [6]
  protein stability index: 0.727 ± 0.0097
[2]; [7]
  protein stability index: 0.226 ± 0.025
[2]; [8]
  protein stability index: 0.253 ± 0.025
[2]; [9]
  protein stability index: 0.487 ± 0.021
